Assay results published in PMC6297230, “Structural basis of meiotic telomere attachment to the nuclear envelope by MAJIN-TERB2-TERB1” (Nature Communications, 2018).

Key:
Test in all cases: EMSA
Details in all cases: apparent, Hill fit; EMSA: 20 mM Tris pH 8.0, 250 mM KCl, 1 h at 4 °C, 3% glycerol, 0.5% agarose in 0.5x TBE; 25 nM FAM-DNA for Kd (protein as oligomer), 0.3 uM DNA for display
[1] = biological target: MAJIN Core;TERB2 C (human;human) (UniProt Q3KP22+Q8NHR7)
[2] = biological target: MAJIN Core;TERB2 full length;TERB1 TRFB (human;human;human) (UniProt Q3KP22+Q8NHR7+Q8NA31)
[3] = biological target: MAJIN dTM;TERB2 C-Tr (human;human) (UniProt Q3KP22+Q8NHR7)
[4] = biological target: MAJIN dTM;TERB2 C (human;human) (UniProt Q3KP22+Q8NHR7)
Chain of MAJIN dTM;TERB2 C (human;human) (Q3KP22 whole entry, chain 1 of 2): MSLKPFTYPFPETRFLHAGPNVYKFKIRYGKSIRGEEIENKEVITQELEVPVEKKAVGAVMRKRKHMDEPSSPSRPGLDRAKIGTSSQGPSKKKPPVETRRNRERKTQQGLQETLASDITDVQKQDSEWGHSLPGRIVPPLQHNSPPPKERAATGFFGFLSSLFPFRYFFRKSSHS
Chain of MAJIN dTM;TERB2 C (human;human) (Q8NHR7 168-220, chain 2 of 2): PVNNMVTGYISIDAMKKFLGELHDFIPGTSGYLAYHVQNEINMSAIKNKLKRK

Chain of MAJIN Core;TERB2 C (human;human) (Q3KP22 whole entry, chain 1 of 2): as the sequence (Q3KP22 whole entry, chain 1 of 2) above
Chain of MAJIN Core;TERB2 C (human;human) (Q8NHR7 168-220, chain 2 of 2): as the sequence (Q8NHR7 168-220, chain 2 of 2) above
Chain of MAJIN Core;TERB2 full length;TERB1 TRFB (human;human;human) (Q3KP22 whole entry, chain 1 of 3): as the sequence (Q3KP22 whole entry, chain 1 of 2) above
Chain of MAJIN Core;TERB2 full length;TERB1 TRFB (human;human;human) (Q8NHR7 whole entry, chain 2 of 3): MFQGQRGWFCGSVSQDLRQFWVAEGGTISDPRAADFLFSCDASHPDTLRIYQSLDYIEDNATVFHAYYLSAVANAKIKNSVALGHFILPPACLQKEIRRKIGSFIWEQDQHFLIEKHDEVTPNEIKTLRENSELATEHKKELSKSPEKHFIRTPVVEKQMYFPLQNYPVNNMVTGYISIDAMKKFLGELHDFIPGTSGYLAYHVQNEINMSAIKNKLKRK
Chain of MAJIN Core;TERB2 full length;TERB1 TRFB (human;human;human) (Q8NA31 561-658, chain 3 of 3): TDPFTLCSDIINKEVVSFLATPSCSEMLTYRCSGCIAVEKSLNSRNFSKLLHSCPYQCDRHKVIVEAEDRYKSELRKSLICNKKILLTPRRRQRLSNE
Chain of MAJIN dTM;TERB2 C-Tr (human;human) (Q3KP22 whole entry, chain 1 of 2): as the sequence (Q3KP22 whole entry, chain 1 of 2) above
Chain of MAJIN dTM;TERB2 C-Tr (human;human) (Q8NHR7 168-207, chain 2 of 2): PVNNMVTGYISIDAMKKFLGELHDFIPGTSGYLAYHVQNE

AATTCTCATTTTACTTACCGGACGCTATTAGCAGTGGCAGATTGTACTGAGAGTGCACCATATGCGGTGTGAAATACCGCACAGATGCGT [Random ssDNA (90 nt)]
Kd [1]: 900 nM

TTAGGGTTAGGGTTAGGGTTAGGGTTAGGGTTAGGGTTAGGGTTAGGGTTAGGGCGACGACCCTAACCCTAACCCTAACCCTAACCCTAACCCTAACCCTAACCCTAACCCTAA [Telomeric hairpin DNA (54 bp)]
Kd [1]: 610 nM

TTCCAGGGTTCCATGGAGATAAAGGTCAATAAATTAGAGTTAGAACTAGAAAGTGCCAAACAGAAATTTGGAGAAATCACAGACACCTATCAGAAAGAAATTGAGGACAAAAAGATATCAGAATAATAACCATGGATATCGAATT (double strand) [FAM random dsDNA (145 bp)]
Kd [2]: 460 nM
Kd [1]: 550 nM
Kd [3]: 200 nM
Kd [4]: 120 nM

TTTTTTTTTTTTTTTTTTTTTTTTTTTTTTTTTTTTTTTTTTTTTTTTTTTTTTTTTTTTTTTTTTTTTTTTTTTTTTTTTTTTTTTTTTTTTTTTTTTT [Poly(dT) (100 nt)]
Kd [1]: 510 nM
